Source: article PMC3448645, “Functional Studies of ssDNA Binding Ability of MarR Family Protein TcaR from Staphylococcus epidermidis”

Experiments:
[1] = target: T1, TcaR (Staphylococcus epidermidis, UniProt Q5HLN6 1-151); assay: EMSA; no significant interaction; 1 uM DNA; EMSA: 20 mM Tris-HCl pH 8.0, 150 mM KCl, 0.1 mM MgCl2, 0.05 mM EDTA, 12.5% glycerol, 0.1 mM DTT, 1 mg/ml BSA, room temperature (30 C for viral ssDNA); SPR: 50 mM Tris, 150 mM NaCl, pH 7.5, 25 C; settings: protein: recombinant, chain copies: 2
[2] = target: T1, TcaR; assay: EMSA; similar to GC33; small complex; EMSA: 20 mM Tris-HCl pH 8.0, 150 mM KCl, 0.1 mM MgCl2, 0.05 mM EDTA, 12.5% glycerol, 0.1 mM DTT, 1 mg/ml BSA, room temperature (30 C for viral ssDNA); SPR: 50 mM Tris, 150 mM NaCl, pH 7.5, 25 C; settings: protein: recombinant; chain copies: 2
[3] = target: TcaR quadruple mutant (Staphylococcus epidermidis, UniProt Q5HLN6 1-151, R71A;K73A;R93A;K95A); assay: EMSA; EMSA: 20 mM Tris-HCl pH 8.0, 150 mM KCl, 0.1 mM MgCl2, 0.05 mM EDTA, 12.5% glycerol, 0.1 mM DTT, 1 mg/ml BSA, room temperature (30 C for viral ssDNA); SPR: 50 mM Tris, 150 mM NaCl, pH 7.5, 25 C; settings: protein: recombinant, chain copies: 2
[4] = target: T1, TcaR; assay: as above; settings: protein: recombinant, chain copies: 2
[5] = target: T1, TcaR; assay: SPR; shown as '-' in table; EMSA: 20 mM Tris-HCl pH 8.0, 150 mM KCl, 0.1 mM MgCl2, 0.05 mM EDTA, 12.5% glycerol, 0.1 mM DTT, 1 mg/ml BSA, room temperature (30 C for viral ssDNA); SPR: 50 mM Tris, 150 mM NaCl, pH 7.5, 25 C; settings: protein: recombinant; chain copies: 2
[6] = target: T1, TcaR; assay: SPR; EMSA: 20 mM Tris-HCl pH 8.0, 150 mM KCl, 0.1 mM MgCl2, 0.05 mM EDTA, 12.5% glycerol, 0.1 mM DTT, 1 mg/ml BSA, room temperature (30 C for viral ssDNA); SPR: 50 mM Tris, 150 mM NaCl, pH 7.5, 25 C; settings: protein: recombinant; chain copies: 2; label: 5' biotin (SPR)
[7] = target: T1, TcaR; assay: EMSA; weaker than the single strands; EMSA: 20 mM Tris-HCl pH 8.0, 150 mM KCl, 0.1 mM MgCl2, 0.05 mM EDTA, 12.5% glycerol, 0.1 mM DTT, 1 mg/ml BSA, room temperature (30 C for viral ssDNA); SPR: 50 mM Tris, 150 mM NaCl, pH 7.5, 25 C; settings: protein: recombinant; chain copies: 2
[8] = target: T1, TcaR; assay: EMSA; similar to GC33; small and large complexes; EMSA: 20 mM Tris-HCl pH 8.0, 150 mM KCl, 0.1 mM MgCl2, 0.05 mM EDTA, 12.5% glycerol, 0.1 mM DTT, 1 mg/ml BSA, room temperature (30 C for viral ssDNA); SPR: 50 mM Tris, 150 mM NaCl, pH 7.5, 25 C; settings: protein: recombinant; chain copies: 2

GAGCGTTGGCGTCGTGC (ssDNA) [GC17]
binding result ([1]; label: 5' biotin (SPR only)): no binding

GTTGGCGTCGTGAGCGTTGGCGTCG (ssDNA) [GC25]
binding result [2]: binds

GAGCGTTGGCGTCGTGAGCGTTGGCGTCGTGCG (ssDNA) [GC33]
binding result ([3]; label: 5' biotin (SPR only)): no binding | binding result ([4]; label: 5' biotin (SPR only)): binds

B1: Control dsDNA (dsDNA)
DNA 1: CCCCCGGGTTCGATGGGCTCAAGGCGGGCATGAAGTACCCCGTACTTCATGCCCGCCTTGAGCCCATCGAACCC
DNA 2: GGGTTCGATGGGCTCAAGGCGGGCATGAAGTACGGGGTACTTCATGCCCGCCTTGAGCCCATCGAACCCGGGGG
binding result [5]: no binding

GATTATTTATTTTCAAATTATTTATTTTCAAGG (ssDNA) [AT33]
binding result ([4]; label: 5' biotin (SPR only)): binds

GTTGGCGT (ssDNA) [GC8]
binding result [6]: no binding

B2: IcaR DNA1 (dsDNA)
DNA 1: TATTGCAAATTGAAATACTTTCGATTAGCATAT
DNA 2: ATATGCTAATCGAAAGTATTTCAATTTGCAATA
binding result [3]: no binding | binding result [7]: binds

ATATGCTAATCGAAAGTATTTCAATTTGCAATA (ssDNA) [IcaR DNA1A]
binding result [4]: binds

TATTGCAAATTGAAATACTTTCGATTAGCATAT (ssDNA) [IcaR DNA1S]
binding result [4]: binds

GCGTTGGCGTCGTGAGCGTTGGCGTCGTG (ssDNA) [GC29]
binding result [8]: binds

GATTATTTATTTTCAAG (ssDNA) [AT17]
binding result [1]: no binding
